According to the supplement of paper PMC9170038:

System: MS2 coat protein
Experiment: apparent KD of MS2 coat protein; designed switch direction (-1 OFF switch, 1 ON switch): -1; higher = weaker reporter binding
In short: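 On Illumina chips, designed RNA switches with common flanks were made by stalled E. coli RNA polymerase. Titrations with SNAP-549-labelled MS2 coat protein, doubling from 0.7 or 1.5 nM to 3 µM, were done with no input, with 200 uM small-molecule ligand, or with an oligonucleotide input. Apparent KD is the median per design over clusters, from curve fits of normalised cluster fluorescence.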

[1] = input ligand: microRNA oligo, concentration not stated
[2] = Eterna round: R95, input ligand: FMN 200 uM
[3] = Eterna round: R95, input ligand: microRNA oligo, concentration not stated
[4] = Eterna round: R95, input ligand: none

Sequence	apparent KD of MS2 coat protein (input ligand: FMN 200 uM)	apparent KD of MS2 coat protein [1]	apparent KD of MS2 coat protein (input ligand: none)	apparent KD of MS2 coat protein [2]	apparent KD of MS2 coat protein [3]	apparent KD of MS2 coat protein [4]
UAUUAGCAAGUAAGGUCCCACAUGAGGAUCACCCAUGUGCUCGUCUUAUAAGGUACUGUGACGAAAGUCACGGUACC [Sensor 3, v1 - 95] (Eterna round: R96, puzzle: Sensor v3, turn-off variant 1)	22 nM	326 nM	23.6 nM			
UUGCAGUCGUCAGGAUAUAGUAUUACGGCCUUUCAUUUCUUCAUACAUGAGGAUCACCCAUGUCGCUAGAAGGGAUUAUCGCUU [salish99_ExNG2_r04_107] (Eterna round: R96, puzzle: Exclusion NG 2)	16.4 nM	14.6 nM	20.6 nM			
GUGAAACAUGAGGAUCACCCAUGUGAGGAUAUGAUUUAGUAAUGGAGACAGUACAUAUUCAGAAGGCACAAUGG [Mat - Mod of JL D76] (puzzle: Exclusion 1)				55.2 nM	150 nM	182 nM
GUUCCACGAGGAUAUGAGGGCAACUACAUGAGGAUCACCCAUGUGAGCGAUCCUCAGAAGUCAGAAGGCGUGGAGA [Eternabot (L2) Solution 77] (Eterna round: R97, puzzle: Exclusion 5)	63.7 nM		70.4 nM			
UGAUUGAUUAACAGAUUAUACAUGAGGAUCACCCAUGUAGGUCCUACGUGCCCUUUAAGCAGCUCGUCUUAUUCCCA [Sensor-V1 #69] (Eterna round: R97, puzzle: Sensor, turn-off variant 1)	43.7 nM		45.6 nM			
AAUAACAGAGGAUAUACUGUUUUAUGUGUUUAUUGUUUUGAACAUGAGGAUCACCCAUGUAGAAGGCUGAGUAA [JMF 39] (puzzle: Exclusion 2)					24.5 nM	
UCUUAUUGCAAGGAUAUGCUAUUUAUUUUUUUUGCAGAAGGUGCAACAUGAGGAUCACCCAUGUUUCCGGGCAU [JR_E6_Sub036] (puzzle: Exclusion 6)					20.3 nM	
CUUGUUUAUGUAGGAUAUGCCUGGCGUGCCUUUGCAGAAGGACAUGAGGAUCACCCAUGUAACAUGAGGCUCACCCAUGUCGCC [salish99_ExNG1_r04_107] (Eterna round: R96, puzzle: Exclusion NG 1)	142 nM	94.8 nM	153 nM			
GUGCCGCGAGGAUAUACAGACGGGUCCAGUACGUGUCUGGGACUUGAGGAUCACCCAAGUAGAAGGCGUCUCAG [salish99_ex2_r4_613] (Eterna round: R97, puzzle: Exclusion 2)	39.9 nM		44.6 nM			
GGCCGUAAUAAGGAUAUCACUAGCUUCGGCUAGUGAGAAGGUAUUACAUGAGGAUCACCCAUGUGAUCAGGCCA [E6/3-B1] (Eterna round: R97, puzzle: Exclusion 6)	726 nM		170 nM			
UCAUGGUUAGAGGAUAUAUAAUUAGUCAGAACAAUAGAAGGCUAGACAUGAGGAUCACCCAUGUAUGUUGAGGU [JR_Ex6_Sub065] (Eterna round: R97, puzzle: Exclusion 6)	42.6 nM		89.4 nM			
GGAGAGGUAGGAUAUGGACCUUAGAACAUGAGGAUCACCCAUGUAGGACCACAUGAUUUGCGAGAAGGACCAGUCC [AK-MS2ROC-r4-exclusion5-7] (Eterna round: R97, puzzle: Exclusion 5)	363 nM		655 nM			
GCAGCUUAGUUAACAGACUGUUACAUGAGGAUCACCCAUGUGCAGGAUAUGGUCUGGAUUACAGGCCAGAAGGGUACAGGCUGC [Eli exng3 - 017] (Eterna round: R96, puzzle: Exclusion NG 3)	10.8 nM	6.6 nM	13.4 nM			
AAAGAACAUGAGGAUCACCCAUGUGAGGAUAUCGAGAAAAGAAAGAAGAAGAAGAAAACGAGAAGGCACAAGAA [The design that might work] (puzzle: Exclusion 1)				43.7 nM	65 nM	56.9 nM
CGCUGGACAGGAUAUGUUCUUGGGCACUUGAGGAUCACCCAAGUCAUCAAGAAAUCAGGCACAGAAGGGUUUAUGG [salish99_ex5_r4_021] (Eterna round: R97, puzzle: Exclusion 5)	18.7 nM		19.9 nM			
CUAAAUCAUGUAGGAUAUGCAUAGCGAAGCUAUGCAGAAGGACAUGAGGAUCACCCAUGUUCUUCCGUCUGAGAACAGACGGAA [Mat - Exclusion NG 1 - Mod of JL - D32] (Eterna round: R96, puzzle: Exclusion NG 1)	164 nM	21.1 nM	32.5 nM			
UGUUGUUGAUAGGAUAUACAGGUAGGAGUAGGAGUAGAAGGAUCUACAUGAGGAUCACCCAUGUAGGAGUGAGA [JR_E6_Sub002] (puzzle: Exclusion 6)					14.9 nM	

Sequence	apparent KD of MS2 coat protein (input ligand: FMN 200 uM)	apparent KD of MS2 coat protein [1]	apparent KD of MS2 coat protein (input ligand: none)	apparent KD of MS2 coat protein [2]	apparent KD of MS2 coat protein [3]	apparent KD of MS2 coat protein [4]
AGAAGUAGUAACCGAUCCUACAUGAGGAUCACCCAUGUAGCCAGACGUGCACGCGAAGCUCGUCAGACUACCAGAUG [salish99_TOv1_r3_026] (puzzle: Sensor v3, turn-off variant 1)				618 nM	447 nM	398 nM
CUAUGGCAAGGAUAUACGUAUCAUGUGACGAUAGCUCAAGAACAUGAGGAUCACCCAUGUAGAAGGUGCGGAGA [Eternabot (L1) Solution 90] (Eterna round: R97, puzzle: Exclusion 2)	54.2 nM		54.6 nM			
CAGUACUGAGGAUAUACAUGAGGAUCACCCAUGUGUCUUCAAUUAGGAAACUAGUUAUGUAGAAGGCAGUACUG [Omei Ex3 Mod of Eli 4.27 v9] (Eterna round: R97, puzzle: Exclusion 3)	770 nM		62.2 nM			
GACGCUAAAGGAUAUACAUGAGGAUCACCCAUGUUGAGGAAGGUUAGAUGAGGAGUAAGUAGAAGGUUAGGCGA [JR_Exclu3_Sub092] (puzzle: Exclusion 3)					33.6 nM	
CUUGUUUAUGUAGGAUAUGCCUGGCGUGCCUUUGCAGAAGGACAUGAGGAUCACCCAUGUAUUGCGGUCUGCGUUCAGAUCGCC [salish99_ExNG1_r4_042] (Eterna round: R96, puzzle: Exclusion NG 1)	34.9 nM	18.9 nM	22 nM			
CCUACUCCCGUUAGGAUAUGUGGAGGCGUACCUCCGUAGAAGGAACAUGAGGAUCACCCAUGUCGCUGUCAUGC [Eternabot (L2) Solution 90] (Eterna round: R97, puzzle: Brourd's mod of Exclusion 4)	18.4 nM		19.9 nM			
AUCCGUAGGCGCACCUCACACAUGAGGAUCACCCAUGUGCCCUACAAUCGCAAGCUGUGCUCGUUGCUGGUCCCUAC [Eternabot (L1) Solution 16] (Eterna round: R97, puzzle: Sensor, turn-off variant 1)	45.3 nM		48.5 nM			
GCGCGGUGAGGAUAUGCGGCGCGCGGGCGCGGGCGGGCGCGGCAGAAGGCACAUGAGGAUCACCCAUGUGGGCG [Prefect Exclusion4] (Eterna round: R97, puzzle: Exclusion 4)	109 nM		24.2 nM			
GGAUCGAGUGUGAGGAUAUGCUGGUCCUUGGAUCAGCAGAAGGCACAUGAGGAUCACCCAUGUGAAUACGGUCC [JL bmx4 3.15] (puzzle: Brourd's mod of Exclusion 4)					23.8 nM	
UUUUAGUCAGGAUAUACAUGAGGAUCACCCAUGUAAAAUUUUAAUUUAAUUUUAAGGUGUAGAAGGGACAACCC [Ex3 #13] (Eterna round: R97, puzzle: Exclusion 3)	26.6 nM		32.6 nM			
UUUAAGGUAAUUAAGAUCACAUGAGGAUCACCCAUGUAUAUAUAGGAUAUCAGCUCGAUUAGAGCUGAGAAGGAUAUAUACAUA [ExNG3/6-C1] (Eterna round: R96, puzzle: Exclusion NG 3)	66.1 nM	33.3 nM	142 nM			
AGUAACCGUCACGAAAGUGAUGGUUACACAAGCAAAUGUACAUGAGGAUCACCCAUGUCCUCAAUUGCUCGUCUUAU [Sensor 3 - 50] (puzzle: Sensor v3, turn-off variant 2)				106 nM	165 nM	137 nM
CCCAGUUAGUCAGGAUAUCUUACAUGAGGAUCACCCAUGUAAUAAAUGAGGAUUUCGGGUGUCUAAGAGAAGGGACGGAUAGGC [Ostracism 27 - Jieux - Exclusion NG 2] (Eterna round: R96, puzzle: Exclusion NG 2)	22.3 nM	9.5 nM	19.4 nM			
CUUUAGACAGGAUAUACUUCCGUGGUCGUAGAGUUACACAGACAUGAGGAUCACCCAUGUAGAAGGGUCAAGCU [Eternabot (L2) Solution 94] (Eterna round: R97, puzzle: Exclusion 2)	76.2 nM		84.7 nM			
AGCUAUGCCGAGGAUAUCGGCUGGAUAAGACACUGAGAAGGCGGGACAUGAGGAUCACCCAUGUGAACCUAUAU [Eternabot (L1) Solution 30] (Eterna round: R97, puzzle: Exclusion 6)	27.3 nM		30.2 nM			
UAAAGUAUAUAGGAUAUCUAGCUGGUAACAGCUAGAGAAGGAUGUACAUGAGGAUCACCCAUGUAAAUCAUGAA [Ex6/16-A2] (Eterna round: R97, puzzle: Exclusion 6)	20.8 nM		17.3 nM			
GAUUGAGAGCAGGAUAUCUUAGAAAUGUAUUAAAGAGAAGGGCUCACAUGAGGAUCACCCAUGUGGUCCUAGAU [JL Dibiri mod 16] (puzzle: Exclusion 6)					20.8 nM	
